The values below are quoted from earlier work in patent US20200085776A1, “Methods of Reducing C-Reactive Protein and/or Treating Cardiovascular Disease” (CARDAX, INC., priority 2018, published 2020).

One data set deals with T1, IL-1β (Homo sapiens, UniProt P01584).
T1 construct: host or cells: human trial patients (endogenous IL-1β)
Conditions: cited from earlier work.

In a further data set the test system is cardiovascular events. Conditions: 15-20 mg/week vs. placebo; cited from earlier work.
The next data set concerns vascular events. Conditions: 20 mg/D; patients who achieved a reduction in CRP<2.0; cited from earlier work.
Where [1] appears, read: subjects with a reduction of CRP<2.0 mg/L, regardless of dose.

As for “canakinumab: monoclonal antibody that targets IL-1β (printed IL-113)”, the deaths from infection result with IL-1β (active treatment groups, mostly tuberculosis) is recorded as “more deaths from infection”. Also, the “effect on CRP, IL-6 and lipids” value with IL-1β (patients with active treatment) was “a reduction in CRP and IL-6, with no change in lipids”. Moreover, in the data set with IL-1β (setting [1]), the “reduction in cardiovascular death and all-cause mortality” value was 31%; the “reduction in the primary end point (composite of myocardial infarction, stroke, or cardiovascular death)” value is listed as 25%.
With `CN(Cc1cnc2nc(N)nc(N)c2n1)c1ccc(C(=O)N[C@@H](CCC(=O)O)C(=O)O)cc1` [methotrexate], in the data set on cardiovascular events, the “cardiovascular events compared to placebo” value is on record as “did not result in fewer cardiovascular events” and the “effect on levels of IL-1β, IL-6, CRP” value was “did not reduce levels of IL-1β, IL-6, or CRP”.
As for `CC(C)c1nc(N(C)S(C)(=O)=O)nc(-c2ccc(F)cc2)c1/C=C/[C@@H](O)C[C@@H](O)CC(=O)O` [rosuvastatin], the “reduction in vascular events” value in the data set on vascular events is listed as 62%.
